± gives the uncertainty stated by the source.

The data set in a line: amyloid nucleation score (Sup35N fusion, yeast selection) (log enrichment); library NNK2; higher = more nucleation; inactive = no reads after selection. A digest of the protocol: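 Output and input plasmid inserts were sequenced by Illumina after psi-negative yeast carrying Sup35N fused to peptides of 20 random codons had been induced 24 hours with 100 μM copper sulfate and grown 7 days at 30°C on medium lacking adenine and uracil. The nucleation score is the DiMSum log enrichment of output over input reads, centred on the mode score of non-aggregating sequences. Sequences with under 100 input reads were excluded.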
In turn, TLCVGVFAHTAMRCRECHAA displayed an amyloid nucleation score of 5.479 ± 0.043. The same measure for ISRKVAGSRDCINVRSTIGL: -1.14 ± 0.44.

In turn, VYCSSCSVFLLCVKNLSWCV came in with an amyloid nucleation score of 8.658 ± 0.053. The same measure for FSVRLMAVRQGRLTAVGKSD: 0.331 ± 0.42. Turning to ADSCKVMKWDRRPLEDFNWC, the amyloid nucleation score is -0.041 ± 0.19. The same measure for SWTCHSFYFSDSFRHGYR: 2.63 ± 0.069; for TGCDVLRIVTRMMGKNKRYF: -0.047 ± 1.1; for FRMWGLC: 0.43 ± 0.36. The same measure for SGFVIWRRQHFEFQEVRSS: -0.515 ± 1.1. In the case of DWQCRGLQYQWFGGVWDANV it was -0.882 ± 0.64; in that of RLIYLCGSRGPNTEFVRVKR, 3.21 ± 0.055. Substance ETAQLWYSRVACCKKRVVYG yielded an amyloid nucleation score of 0.594 ± 0.47.

The substance LIFSAEMNLIVTDWTVRLSS yielded an amyloid nucleation score of 0.496 ± 0.8. In the case of REAAVHRLIAWIGFRCRCQV it was -0.317 ± 1.1; in that of YLFKPSPTSHYCAFCTVYRN, 3.84 ± 0.079.

In turn, HVWLDLTYGNILQNRNCLTW came in with an amyloid nucleation score of -0.335 ± 0.25.

Consider SLMFGLIHSWDMK, for which the amyloid nucleation score entry is “inactive”. In the case of MVCLLSFPHPCGINLMVARN it was -0.147 ± 0.37; in that of TWFRSVMYPDLSHFYMF, “inactive”; in that of VWDHVAGARALTWLRMLLKQ, “inactive”. Substance CGELY had an amyloid nucleation score of 0.506 ± 0.66. In the case of RGNMESLWQNRKGRCSLNHG it was “inactive”.

QLVFYSNFVSKDVNVDLQWL registered an amyloid nucleation score of 5.75 ± 0.062. The substance GSGIIHTVGLGV gave an amyloid nucleation score of -0.153 ± 0.65. In the case of DNMWV it was 0.388 ± 0.54; in that of CFCPMLLLYIVRP, 7.483 ± 0.023. Substance DVLALFYSYCALN gave an amyloid nucleation score of 0.049 ± 1.1. In the case of DALDTRKLYN it was “inactive”. In the case of LRCFRACQTRRAFEVLLLEF it was -0.152 ± 1; in that of IHNDCKLPMFVIMFS, 6 ± 0.082; in that of CVINKKNYDSFGFSVFTFYK, 3.19 ± 0.074. In the case of VTVMTRLDFSTRSSATKPHG it was 5.667 ± 0.044; in that of YYSPQSVKEYPRNTYRLIKA, -0.613 ± 0.45.

PCRLHLAWIVSLMT came in with an amyloid nucleation score of 4.21 ± 0.067.

The substance LACVKMFSGVFV registered an amyloid nucleation score of 0.06 ± 0.65. The same measure for NPYAHTGHCVIRGFFVA: 0.275 ± 0.53. The same measure for RSCATFIFVMS: 4.98 ± 0.073; for DHAGWCSDRWVTDFDFAMGN: 0.829 ± 0.5. The same measure for KLFRQQCDS: 0.247 ± 0.8.

Substance TICDTLGYLTRSWYLSYESS came in with an amyloid nucleation score of -0.545 ± 0.32.

Substance VGLCSPWKHALFD returned an amyloid nucleation score of 3.33 ± 0.073. The same measure for MVANG: 0.317 ± 0.62. In turn, VLATSFNFELGSGRTDLCRV had an amyloid nucleation score of -0.805 ± 0.46. In the case of SCVLRP it was 0.064 ± 0.33; in that of SVIEISECLERVVRWHRVAG, 1.76 ± 0.33. The same measure for HTTDEISAS: 1.09 ± 0.36; for DVHRWKIWQASG: 0.901 ± 0.26. In the case of HTKMTIWNVVQC it was -0.517 ± 0.63. In turn, DERSLLDLHYCR had an amyloid nucleation score of 0.912 ± 0.43. On to LYVVIIPSEAIHVTKSSHGI, for which the amyloid nucleation score entry was “inactive”.

Turning to SYGVLGDLASGTSRTID, the amyloid nucleation score was -1.25 ± 0.64. In turn, AYCRGFYYIIALVSSPEQKR returned an amyloid nucleation score of 0.175 ± 0.34. The same measure for VKTQSTVWSYR: 0.409 ± 0.28; for VQNMIDKVMKYWTYSICSTV: 1.27 ± 0.36; for PMLEFWFMAWIEMFTYKKCC: 1.8 ± 0.53. The same measure for HLFTSCYYYMPLYLLSQRQY: 6.095 ± 0.044. For EVEWAFTYHISL, the amyloid nucleation score is -0.095 ± 0.39. In the case of GRWVST it was 1.29 ± 0.43; in that of GHVTYLVTAPHV, 2.89 ± 0.14.

Substance IVLFVKVDLLIDLISPL displayed an amyloid nucleation score of 0.049 ± 0.56. In the case of KWLTAHAAYLWSETEVRMVV it was 0.673 ± 0.27; in that of GWFKESVFLGFWVRISNSQV, -1.75 ± 1.1; in that of HLSRPGDAYTVMFT, 5.845 ± 0.036.

Turning to QGLSCEGILWLVEYSQTFFG, the amyloid nucleation score is -1.27 ± 1.1. The same measure for HGCLYFRFLNALSSFGGYRA: -1.7 ± 1. The same measure for TLSVTEGYSNLTSMWYGCKR: 3.23 ± 0.15; for DKWLWEL: 0.575 ± 0.32; for FIVRSLRSSHTKTVPLPACC: “inactive”. The same measure for TYCFLGFQNIPSMLNPMNFG: 2.98 ± 0.046; for DKKMVTTPTMPDK: 0.977 ± 0.2. The substance SKLTRSIENLLF had an amyloid nucleation score of 0.949 ± 0.15. The same measure for WNKLSLA: 0.443 ± 0.49. Take IMKYAHFNLK: the amyloid nucleation score was 0.788 ± 0.51. The same measure for CSNADFDSRVFTDANMIFPK: 4.01 ± 0.098; for NMFIRKEYWSTLALEIFWWS: -0.441 ± 0.4; for SFCDLWLLAQDHAKLLGFIA: -0.499 ± 0.55. In the case of CWLFNTY it was 3.04 ± 0.14; in that of NADHDLSEILVNRRTGWFHF, 5.836 ± 0.041; in that of DFANFMGCMVNEAPRLHFAL, 0.404 ± 0.38. In the case of YGTCFS it was 0.191 ± 0.47; in that of LGTSWHHRAKE, 3.31 ± 0.086.

Substance TNHFN displayed an amyloid nucleation score of -1.08 ± 0.61.

Consider MFNACDNRKFCVGVCSDLK, for which the amyloid nucleation score was found to be 0.036 ± 0.41. In the case of KCLFES it was 0.144 ± 0.77; in that of KYTGMKYRPTVCLGVEVQLK, 3.83 ± 0.062; in that of IMYVMGVVFNTMWVSA, -1.11 ± 0.62. The same measure for PIRPVLWVQFVKTQYGPMIP: 4.68 ± 0.098; for GNLDRYRYLETDKSGAMLGV: 4.3 ± 0.064.

PPRKTIELCSTQP yielded an amyloid nucleation score of 0.7 ± 0.35. The same measure for RCPGCDE: 1.26 ± 0.25; for GFEQRGIRVMFVPYDINFSV: 6.269 ± 0.031. The same measure for ESDSWNVVITDM: -0.371 ± 0.64; for GASSF: “inactive”. The same measure for MIASIGLDCEHVM: 0.841 ± 0.5; for GLCMYGVTAKRMLVVWRERG: 8.804 ± 0.046.

With LWMDWS, the amyloid nucleation score worked out at 0.754 ± 0.36.

With VLMINWMKVADFHEYFFICH, the amyloid nucleation score was 6.3 ± 0.066. In the case of CHLKFNANVKWLGSLGKLEY it was 4.74 ± 0.069. The same measure for QVGKQADFRVAWLRVIHVF: 0.292 ± 0.56. The same measure for HTDLTSKFFYLNWCGLSLLR: 3.39 ± 0.072.

For NFNCAPFLVLYQQVGQAFSL, the amyloid nucleation score stood at 6.578 ± 0.06. In the case of SVTVTSLWHGTEL it was -0.22 ± 1.1. In the case of INLYPR it was “inactive”; in that of VLSCRSLSAQFSMPAFMEQS, 0.972 ± 0.18. In the case of AVWAEEGMPLMLGACRRTWG it was 1.25 ± 0.26.

For the origin of these results see the supplement of paper PMC12042874.
